Laboratory results from article PMC7268246, “Purification and immobilization of engineered glucose dehydrogenase: a new approach to producing gluconic acid from breadwaste” (Biotechnology for Biofuels, 2020).

Biological target: the molecule itself
Experiment: SEC; Superdex Increase 10x300GL column on an ÄKTA Pure system; Ni-NTA purified GDH dialysed into 100 mM HEPES pH 7.4, 200 mM MgCl2, 10% glycerol; run in one buffer only

B1: recombinant glucose dehydrogenase (GDH) from Sulfolobus solfataricus (enzyme, UniProt O93715 1-366, looked up)
chain: MKAIIVKPPNAGVQVKDVDEKKLDSYGKIKIRTIYNGICGTDREIVNGKLTLSTLPKGKDFLVLGHEAIGVVEESYHGFSQGDLVMPVNRRGCGICRNCLVGRPDFCETGEFGEAGIHKMDGFMREWWYDDPKYLVKIPKSIEDIGILAQPLADIEKSIEEILEVQKRVPVWTCDDGTLNCRKVLVVGTGPIGVLFTLLFRTYGLEVWMANRREPTEVEQTVIEETKTNYYNSSNGYDKLKDSVGKFDVIIDATGADVNILGNVIPLLGRNGVLGLFGFSTSGSVPLDYKTLQEIVHTNKTIIGLVNGQKPHFQQAVVHLASWKTLYPKAAKMLITKTVSINDEKELLKVLREKEHGEIKIRILWE
notes: glucose dehydrogenase (GDH) of Sulfolobus solfataricus; the discussion gives the monomer as 366 amino acid residues (41 kDa); the tagged construct has 43 kDa; also called engineered GDH; recombinant GDH; source: E. coli BL21-DE3 (pET30a), lysate heat treated at 70 °C, purified (Ni-NTA, dialysis, size exclusion chromatography)
stoichiometry N: 4
